{
  "source": "paper PMC3003327",
  "about": "(The Journal of Cell Biology, 2010)",
  "biological_target": "the molecule itself",
  "experiment": "AUC",
  "data": [
    {"protein": "human VASP^1-380aa, unlabeled wild type (untagged hVASP^1-380aa) (natural protein) GSMSETVICSSRATVMLYDDGNKRWLPAGTGPQAFSRVQIYHNPTANSFRVVGRKMQPDQQVVINCAIVRGVKYNQATPNFHQWRDARQVWGLNFGSKEDAAQFAAGMASALEALEGGGPPPPPALPTWSVPNGPSPEEVEQQKRQQPGPSEHIERRVSNAGGPPAPPAGGPPPPPGPPPPPGPPPPPGLPPSGVPAAAHGAGGGPPPAPPLPAAQGPGGGGAGAPGLAAAIAGAKLRKVSKQEEASGGPTAPKAESGRSGGGGLMEEMNAMLARRRKATQVGEKTPKDESANQEEPEARVPAQSESVRRPWEKNSTTLPRMKSSSSVTTSETQPCTPSSSDYSDLQRVKQELLEEVKKELQKVKEEIIEAFVQELRKRGSP", "values": [
      {"measurement": "stoichiometry N", "value": 4}
    ]}
  ]
}
